Laboratory results from paper PMC5508133.

Target: PfEMP1B (GFP-tagged minimal PfEMP1 construct) (P. falciparum)
Assay: co-IP; GFP-Trap on parasite lysates crosslinked with increasing concentrations of DSP; 1% Triton X-100, 150 mM NaCl, 50 mM Tris-HCl pH 7.4; western blot of eluates

B1: ring-exported protein-1 (REX1) (natural protein)
chain: MADYSSNEEETPKEEKKISKLEDMQSPFDYKRFFRKYTIFAPFILVYFTLMFFVNSTVQNGTMLLNSIKENANSKLPALLWNKIIGKGNDNEVNFEDKKMIEGNKSGNGEEHNKHKRRQVDNQEDDYDVDEYGNPKSGAPYKSEEEHAEQQNYYGEHHGDYEDKNEYHGKSNIENNKDFPEQGQKDEEKEKEAKKKAEEFEKRKQLHEEEKRKARETQQALHKKLQEQLQRLKEQEKKKVEHQKLIHKIKTQGDVDPAVQKVLNKYNQKEKDEEQQILKIRDLQVQLRHIQQRIQSLKSTNNGQPKTKDEYLQLKDLQKEYYDKEQDEQNMIEHLEHLQGEMQYLYEELQIVYDENQAKTAQAKDEQHELKPQAEKDASKLTTTYDQTKEVKPQAEKDASKLTTTYDQTKEVKPQAEKDASKLTTTYDQTKEVKPQAEKDALAKTENQNGELLPQAEKDASKLTTTYDQTKEVKPQAEKDALAKTENQNGELLPQAEKDASKLTTTYDQTKEVKPQAEKDALAKTENQNGELLPQAEKDASKLTTTYDQTKEVKPQAEKDALAKTENQSGELLTQAEKDALAKKESEAPKGSSTSDKNTTENQLNAEAQSEVKPQWQKDYWKSKNESQTETNNTWKKDSWKKKTEEQQNAEAQQEVKSPYEKYSYNKETKPQNDKYTLNKEVKPQNEKYTYNQKVKAENTESEKSLLESSVFN
In the case of B1, the fold increase of pull-down in the presence of DSP is reported as over 10 fold.
